The results in this text go back to patent US20140206628A1 (University of Washington, published 2014).

Like-named read-outs stand apart in the source and are kept apart here.

The target of test [1] is T1, A/South Carolina/1/1918 (H1N1) hemagglutinin ectodomain, biotinylated (Influenza A virus A/South …).
Test [2] concerns the target T1, A/South Carolina/1/1918 (H1N1) …. This is another data set of the same source.
For test [3] the target is unchanged. The source holds these as a separate data set.
The target is the same in test [4]. The source holds these as a separate data set.

B1: HB36.1 (Asp47Ser) (designed binder)
chain: MSNAMDGQQLNRLLLEWIGAWDPFGLGKDAYDVEAEAVLQAVYETESAFDLAMRIMWIYAFAFNRPIPFPHAQKLARRLLELKQAASSPLPLE
As usually defined, the Kd is a measure of binding affinity in units of concentration. With B1, the results for the Kd in test [1] and in test [3] were 5 nM and 2 to 5 nM, respectively. In addition, the “fold increase of binding affinity relative to HB36” value in test [2] is roughly 40 fold.

B2: HB80.1 (Met26Thr, Asn36Lys) (designed binder)
chain: MASTRGSGRPWDFSENLAFELALAFTNKDTPDRWAKVAQYVSGRTPEEVKKHYEILVEDIKYIESGKVPFPNYRTTGGNMKTDEKRFRNLKIRLE
On to B2, for which the Kd in test [1] and in test [4] was 7.5 nM throughout.
